Substrate in the data set: NCC(=O)N[C@@H](Cc1ccccc1)C(=O)Nc1ccc([N+](=O)[O-])cc1
The experiment in a line: purified protein. Particulars: wild type; conditions of the Km measurement not told.

From article PMC4021333 come the findings set out here.

For orientation: Km means the substrate concentration at which the rate is half of its maximum.

B1: DAP BII (Pseudoxanthomonas mexicana) (protein)
chain: GEGMWVPQQLPEIAGPLKKAGLKLSPQQISDLTGDPMGAVVALGGCTASFVSPNGLVVTNHHCAYGAIQLNSTAENNLIKNGFNAPTTADEVSAGPNARVFVLDEITDVTKDAKAAIAAAGDDALARTKALEAFEKKLIADCEAEAGFRCRLYSFSGGNTYRLFKNLEIKDVRLAYAPPGSVGKFGGDIDNWMWPRHTGDFAFYRAYVGKDGKPAAFSKDNVPYQPKHWLKFADQPLGAGDFVMVAGYPGSTNRYALAAEFDNTAQWTYPTIARHYKNQIAMVEAAGKQNADIQVKYAATMAGWNNTSKNYDGQLEGFKRIDAAGQKLREEAAVLGWLKGQGAKGQPALDAHAKLLDLLEQSKATRDRDLTLALFNNTAMLGSATQLYRLSIEREKPNAERESGYQERDLPAIEGGLKQLERRYVAAMDRQLQEYWLNEYIKLPADQRVAAVDAWLGGNDAAAVKRALDRLAGTKLGSTEERLKWFAADRKAFEASNDPAIQYAVAVMPTLLKLEQERKTRAGENLAARPVYLQALADYKKSQGEFVYPDANLSLRITFGNVMGYAPKDGMEYTPFTTLEGVVAKETGQDPFDSPKALLDAVAAKRYGGLEDKRIGSVPVNYLSDLDITGGNSGSPVLDAHGKLVGLAFDGNWESVSSNWVFDPKMTRMIAVDGRYLRWIMQEVYPAPQLLKEMNVGK
In the case of B1, the Km came out at 1400 µM.
